Results taken from the supplement of paper PMC9112550, “Optimization of the antimicrobial peptide Bac7 by deep mutational scanning” (BMC Biology, 2022).

Test system: Escherichia coli TOP10
Assay: shrunken log2 fold change of peptide-encoding DNA abundance (4.5 h post-induction vs induction); higher = less antimicrobial activity (less host growth inhibition)
Conditions: time post-induction: 4.5 h; library: site-saturation at positions 5, 18, 19, 20
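Further: peptides expressed intracellularly from a pBAD plasmid library in pooled LB shake-flask culture, induced with 0.3% L-arabinose, DNA abundance read by NGS, three biological replicates, DESeq2 with apeglm shrinkage.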

Question: Which “shrunken log2 fold change” value does the source give for RRIRQRPPRLPRPRPRPTTCPRP here?
Answer: The value was 0.106.

Question: Which “shrunken log2 fold change” value does the source give for RRIRQRPPRLPRPRPRPTTWPRP here?
Answer: Its value is -0.0695.

Question: How did the “shrunken log2 fold change” value turn out when RRIRQRPPRLPRPRPRPTVIPRP was run?
Answer: Its value is -0.0817.

Question: How did the “shrunken log2 fold change” value turn out when RRIRQRPPRLPRPRPRPTVQPRP was run?
Answer: Its value is 0.226.

Question: RRIRQRPPRLPRPRPRPTWFPRP was tested. Which “shrunken log2 fold change” value did it give?
Answer: Its value is 0.104.

Question: RRIRQRPPRLPRPRPRPTYPPRP was tested. Which “shrunken log2 fold change” value did it give?
Answer: The value was 0.0397.

Question: With RRIRQRPPRLPRPRPRPTYSPRP as the sequence, how does the “shrunken log2 fold change” value read?
Answer: Its value is 0.0402.

Question: RRIRQRPPRLPRPRPRPVAYPRP was tested. Which “shrunken log2 fold change” value did it give?
Answer: Its value is -0.0015.

Question: RRIRQRPPRLPRPRPRPVCGPRP was tested. Which “shrunken log2 fold change” value did it give?
Answer: The value was 0.205.

Question: How did the “shrunken log2 fold change” value turn out when RRIRQRPPRLPRPRPRPVCQPRP was run?
Answer: Its value is -0.0856.

Question: How did the “shrunken log2 fold change” value turn out when RRIRQRPPRLPRPRPRPVDYPRP was run?
Answer: Its value is 0.0237.

Question: With RRIRQRPPRLPRPRPRPVGKPRP as the sequence, how does the “shrunken log2 fold change” value read?
Answer: Its value is -0.14.

Question: For RRIRQRPPRLPRPRPRPVGWPRP, which “shrunken log2 fold change” value is on record?
Answer: Its value is 0.72.

Question: How did the “shrunken log2 fold change” value turn out when RRIRQRPPRLPRPRPRPVHDPRP was run?
Answer: The value was 0.0147.

Question: RRIRQRPPRLPRPRPRPVHYPRP was tested. Which “shrunken log2 fold change” value did it give?
Answer: The value was -0.0228.

Question: For RRIRQRPPRLPRPRPRPVKSPRP, which “shrunken log2 fold change” value is on record?
Answer: The value was 0.169.

Question: With RRIRQRPPRLPRPRPRPVLEPRP as the sequence, how does the “shrunken log2 fold change” value read?
Answer: Its value is 0.198.

Question: Which “shrunken log2 fold change” value does the source give for RRIRQRPPRLPRPRPRPVLYPRP here?
Answer: Its value is 0.0138.

Question: For RRIRQRPPRLPRPRPRPVMHPRP, which “shrunken log2 fold change” value is on record?
Answer: The value was -0.679.

Question: Which “shrunken log2 fold change” value does the source give for RRIRQRPPRLPRPRPRPVNGPRP here?
Answer: Its value is -0.0109.

Question: Which “shrunken log2 fold change” value does the source give for RRIRQRPPRLPRPRPRPVPPPRP here?
Answer: The value was 0.536.

Question: For RRIRQRPPRLPRPRPRPVQMPRP, which “shrunken log2 fold change” value is on record?
Answer: Its value is -0.163.

Question: How did the “shrunken log2 fold change” value turn out when RRIRQRPPRLPRPRPRPVQYPRP was run?
Answer: Its value is -0.0137.

Question: With RRIRQRPPRLPRPRPRPVRKPRP as the sequence, how does the “shrunken log2 fold change” value read?
Answer: Its value is -0.0285.

Question: With RRIRQRPPRLPRPRPRPVRNPRP as the sequence, how does the “shrunken log2 fold change” value read?
Answer: The value was -0.0556.

Question: Which “shrunken log2 fold change” value does the source give for RRIRQRPPRLPRPRPRPVSFPRP here?
Answer: Its value is -0.309.

Question: With RRIRQRPPRLPRPRPRPVVKPRP as the sequence, how does the “shrunken log2 fold change” value read?
Answer: The value was -0.031.

Question: Which “shrunken log2 fold change” value does the source give for RRIRQRPPRLPRPRPRPVWGPRP here?
Answer: Its value is 0.225.

Question: How did the “shrunken log2 fold change” value turn out when RRIRQRPPRLPRPRPRPVWSPRP was run?
Answer: The value was -0.176.

Question: RRIRQRPPRLPRPRPRPVYTPRP was tested. Which “shrunken log2 fold change” value did it give?
Answer: The value was -0.143.

Question: RRIRQRPPRLPRPRPRPWCGPRP was tested. Which “shrunken log2 fold change” value did it give?
Answer: The value was -0.00744.

Question: How did the “shrunken log2 fold change” value turn out when RRIRQRPPRLPRPRPRPWCTPRP was run?
Answer: Its value is -0.244.

Question: Which “shrunken log2 fold change” value does the source give for RRIRQRPPRLPRPRPRPWFKPRP here?
Answer: Its value is -0.183.

Question: RRIRQRPPRLPRPRPRPWFYPRP was tested. Which “shrunken log2 fold change” value did it give?
Answer: The value was -0.373.

Question: How did the “shrunken log2 fold change” value turn out when RRIRQRPPRLPRPRPRPWGLPRP was run?
Answer: The value was 0.211.

Question: With RRIRQRPPRLPRPRPRPWGWPRP as the sequence, how does the “shrunken log2 fold change” value read?
Answer: The value was 0.546.

Question: Which “shrunken log2 fold change” value does the source give for RRIRQRPPRLPRPRPRPWIDPRP here?
Answer: Its value is -0.0353.

Question: With RRIRQRPPRLPRPRPRPWKKPRP as the sequence, how does the “shrunken log2 fold change” value read?
Answer: The value was -0.000921.

Question: For RRIRQRPPRLPRPRPRPWLAPRP, which “shrunken log2 fold change” value is on record?
Answer: The value was 0.136.

Question: For RRIRQRPPRLPRPRPRPWMAPRP, which “shrunken log2 fold change” value is on record?
Answer: Its value is -0.147.

Question: For RRIRQRPPRLPRPRPRPWNCPRP, which “shrunken log2 fold change” value is on record?
Answer: The value was -0.0444.

Question: With RRIRQRPPRLPRPRPRPWNKPRP as the sequence, how does the “shrunken log2 fold change” value read?
Answer: Its value is -0.34.

Question: For RRIRQRPPRLPRPRPRPWNNPRP, which “shrunken log2 fold change” value is on record?
Answer: Its value is 0.079.

Question: For RRIRQRPPRLPRPRPRPWPHPRP, which “shrunken log2 fold change” value is on record?
Answer: Its value is 0.172.

Question: RRIRQRPPRLPRPRPRPWPQPRP was tested. Which “shrunken log2 fold change” value did it give?
Answer: Its value is -0.0188.

Question: For RRIRQRPPRLPRPRPRPWRHPRP, which “shrunken log2 fold change” value is on record?
Answer: Its value is 0.0151.

Question: How did the “shrunken log2 fold change” value turn out when RRIRQRPPRLPRPRPRPWTTPRP was run?
Answer: Its value is -0.0827.

Question: For RRIRQRPPRLPRPRPRPWVIPRP, which “shrunken log2 fold change” value is on record?
Answer: The value was -0.134.

Question: RRIRQRPPRLPRPRPRPWWFPRP was tested. Which “shrunken log2 fold change” value did it give?
Answer: Its value is -0.0566.

Question: For RRIRQRPPRLPRPRPRPWWMPRP, which “shrunken log2 fold change” value is on record?
Answer: The value was -0.0322.

Question: RRIRQRPPRLPRPRPRPWWYPRP was tested. Which “shrunken log2 fold change” value did it give?
Answer: The value was -0.0791.

Question: For RRIRQRPPRLPRPRPRPWYAPRP, which “shrunken log2 fold change” value is on record?
Answer: Its value is -0.134.

Question: RRIRQRPPRLPRPRPRPYACPRP was tested. Which “shrunken log2 fold change” value did it give?
Answer: Its value is 0.0958.

Question: Which “shrunken log2 fold change” value does the source give for RRIRQRPPRLPRPRPRPYAMPRP here?
Answer: Its value is -0.341.

Question: RRIRQRPPRLPRPRPRPYHIPRP was tested. Which “shrunken log2 fold change” value did it give?
Answer: Its value is 0.0735.

Question: For RRIRQRPPRLPRPRPRPYHKPRP, which “shrunken log2 fold change” value is on record?
Answer: Its value is 0.0375.

Question: With RRIRQRPPRLPRPRPRPYINPRP as the sequence, how does the “shrunken log2 fold change” value read?
Answer: The value was -0.299.

Question: RRIRQRPPRLPRPRPRPYLMPRP was tested. Which “shrunken log2 fold change” value did it give?
Answer: Its value is -1.39.

Question: RRIRQRPPRLPRPRPRPYMHPRP was tested. Which “shrunken log2 fold change” value did it give?
Answer: The value was -0.512.

Question: Which “shrunken log2 fold change” value does the source give for RRIRQRPPRLPRPRPRPYMNPRP here?
Answer: Its value is -0.155.

Question: For RRIRQRPPRLPRPRPRPYNCPRP, which “shrunken log2 fold change” value is on record?
Answer: The value was -0.92.

Question: Which “shrunken log2 fold change” value does the source give for RRIRQRPPRLPRPRPRPYNDPRP here?
Answer: Its value is 0.00408.

Question: RRIRQRPPRLPRPRPRPYRLPRP was tested. Which “shrunken log2 fold change” value did it give?
Answer: The value was -0.19.

Question: How did the “shrunken log2 fold change” value turn out when RRIRQRPPRLPRPRPRPYRMPRP was run?
Answer: Its value is 3.17.

Question: For RRIRQRPPRLPRPRPRPYSDPRP, which “shrunken log2 fold change” value is on record?
Answer: The value was -0.028.

Question: How did the “shrunken log2 fold change” value turn out when RRIRQRPPRLPRPRPRPYSTPRP was run?
Answer: Its value is -0.0896.

Question: How did the “shrunken log2 fold change” value turn out when RRIRQRPPRLPRPRPRPYTIPRP was run?
Answer: The value was -0.0485.

Question: For RRIRQRPPRLPRPRPRPYYEPRP, which “shrunken log2 fold change” value is on record?
Answer: Its value is -0.172.

Question: RRIRQRPPRLPRPRPRPYYHPRP was tested. Which “shrunken log2 fold change” value did it give?
Answer: The value was -0.413.

Question: With RRIRRRPPRLPRPRPRPAAFPRP as the sequence, how does the “shrunken log2 fold change” value read?
Answer: Its value is 0.967.

Question: For RRIRRRPPRLPRPRPRPAAHPRP, which “shrunken log2 fold change” value is on record?
Answer: Its value is 0.361.

Question: With RRIRRRPPRLPRPRPRPAAKPRP as the sequence, how does the “shrunken log2 fold change” value read?
Answer: The value was 0.267.

Question: Which “shrunken log2 fold change” value does the source give for RRIRRRPPRLPRPRPRPAEPPRP here?
Answer: Its value is 0.723.

Question: RRIRRRPPRLPRPRPRPAERPRP was tested. Which “shrunken log2 fold change” value did it give?
Answer: Its value is 0.606.

Question: For RRIRRRPPRLPRPRPRPAFQPRP, which “shrunken log2 fold change” value is on record?
Answer: Its value is 1.62.
